We go through 8 variants from publication PMC7564666 (2020).

B1: GST-LASP1 (full length LIM and SH3 Protein 1, residues 1–261) [human] / argonaute 2 (Ago2), endogenous [human (endogenous in MDA-MB-231 variants 231S and Bone-Un)] (parent complex)
chain 1: MNPNCARCGKIVYPTEKVNCLDKFWHKACFHCETCKMTLNMKNYKGYEKKPYCNAHYPKQSFTMVADTPENLRLKQQSELQSQVRYKEEFEKNKGKGFSVVADTPELQRIKKTQDQISNIKYHEEFEKSRMGPSGGEGMEPERRDSQDGSSYRRPLEQQQPHHIPTSAPVYQQPQQQPVAQSYGGYKEPAAPVSIQRSAPGGGGKRYRAVYDYSAADEDEVSFQDGDTIVNVQQIDDGWMYGTVERTGDTGMLPANYVEAI
chain 2: not shown

The variants in one experiment derive from B1. Kind of experiment: GST pull-down, immunoblot; 1 mg of Bone-Un LASP1 KO total lysate; 1.5 nmol of each LASP1 single-mutant protein; parent: 1. (In western blotting, separated proteins are transferred to a membrane and probed.)
chain 1 S146D: the ratio to parent turned out to be 3.23.
For the variant chain 1 S146A, the ratio to parent amounted to 4.79.
chain 1 Y171D: the ratio to parent turned out to be 5.
Take chain 1 Y171F: the ratio to parent was found to be 0.27.

The next experiment covers variants of B1. Kind of experiment: GST pull-down with purified proteins (direct binding), immunoblot; 100 ng of purified recombinant Ago2; 1.5 nmol of each purified single-mutant protein; high exposure blot; parent: 1.
chain 1 S146D: the ratio to parent stood at 0.39.
Same read-out and setting: to chain 1 Y171D belongs 0.61; to chain 1 Y171F, 0.08.

Variants of B1 are the subject of a further experiment. The experiment in a line: GST pull-down, immunoblot; 1 mg of Bone-Un LASP1-KO total lysate; 1.5 nmol of each of the double-mutants; parent: 1.
Consider chain 1 S146A, chain 1 Y171F, for which the ratio to parent is 1.29.
For the variant chain 1 S146A, chain 1 Y171D, the ratio to parent was 1.82.
As for chain 1 S146D, chain 1 Y171D, the ratio to parent worked out at 0.9.

In the next experiment the parent is B1. Kind of experiment: GST pull-down with purified proteins (direct binding), immunoblot; 100 ng of purified recombinant Ago2; 1.5 nmol of purified LASP1 double mutants; low exposure blot; parent: 1.
Take chain 1 S146A, chain 1 Y171F: the ratio to parent was 1.6.
For chain 1 S146A, chain 1 Y171D, the ratio to parent is 3.98.

Variants of B1 are the subject of a further experiment. The experiment in a line: GST pull-down with purified proteins (direct binding), immunoblot; 100 ng of purified recombinant Ago2; 1.5 nmol of purified LASP1 double mutants; high exposure blot; parent: 1.
In the case of chain 1 S146D, chain 1 Y171F, the ratio to parent is 0.34.
Regarding chain 1 S146D, chain 1 Y171D, the ratio to parent turned out to be 0.58.
